# T1: Apelin substrate (H. sapiens)
# T1 chain: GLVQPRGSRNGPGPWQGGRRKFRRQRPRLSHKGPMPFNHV
# T2: EV-9
# T2 chain: EINSTEINHV
# T3: GV-10
# T3 chain: GLPPPIFNHV
# T4: Galanin substrate (H. sapiens)
# T4 chain: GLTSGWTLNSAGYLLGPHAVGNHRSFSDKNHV
# T5: HV-10
# T5 chain: HLPPPIFNHV
# T6: Histatin-1a
# T6 chain: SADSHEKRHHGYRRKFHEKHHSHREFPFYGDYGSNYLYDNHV
# T7: Histatin-1b
# T7 chain: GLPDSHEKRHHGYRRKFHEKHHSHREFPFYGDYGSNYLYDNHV
# T8: Histatin-3a
# T8 chain: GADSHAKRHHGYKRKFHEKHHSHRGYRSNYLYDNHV
# T9: Histatin-3b
# T9 chain: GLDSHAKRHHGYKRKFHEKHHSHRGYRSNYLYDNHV
# T10: Neuromedin U substrate (H. sapiens)
# T10 chain: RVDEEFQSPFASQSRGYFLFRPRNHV
# T11: RV-10
# T11 chain: RVTRPVNHV
# T12: Rat neuromedin U substrate
# T12 chain: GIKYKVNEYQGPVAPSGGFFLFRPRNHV
# T13: SA-kB1-NHV
# T13 chain: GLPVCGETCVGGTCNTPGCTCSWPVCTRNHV
# T14: SFTI-DHV
# T14 chain: GRCTKSIPPICFPDHV
# T15: SFTI-NHV
# T15 chain: GRCTKSIPPICFPNHV
# T16: SV-10
# T16 chain: SLPPPIFNHV
# T17: Salusin substrate (H. sapiens)
# T17 chain: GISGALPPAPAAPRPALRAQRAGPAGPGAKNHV
# T18: Thanatin analog
# T18 chain: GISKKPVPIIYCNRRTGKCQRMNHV
# T19: kB1-AHV (not fully specified)
# T19 chain: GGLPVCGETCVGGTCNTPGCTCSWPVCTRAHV
# T20: kB1-DHV (not fully specified)
# T20 chain: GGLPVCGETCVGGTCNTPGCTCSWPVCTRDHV
# T21: kB1-EHV (not fully specified)
# T21 chain: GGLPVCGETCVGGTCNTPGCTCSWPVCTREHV
# T22: kB1-N* (not fully specified)
# T22 chain: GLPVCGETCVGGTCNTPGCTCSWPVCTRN
# T23: kB1-NH (not fully specified)
# T23 chain: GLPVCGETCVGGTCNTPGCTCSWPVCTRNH
# T24: kB1-NHV (not fully specified)
# T24 chain: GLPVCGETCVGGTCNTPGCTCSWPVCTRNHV
# T25: kB1-NHVIA (not fully specified)
# T25 chain: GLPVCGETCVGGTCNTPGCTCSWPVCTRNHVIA
# T26: kB1-NHVI (not fully specified)
# T26 chain: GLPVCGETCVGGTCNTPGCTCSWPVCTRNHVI
# T27: kB1-QHV (not fully specified)
# T27 chain: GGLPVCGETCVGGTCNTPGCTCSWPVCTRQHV
# Columns and labels:
# [1] = molecular target: T1, Apelin substrate (H. sapiens)
# EV-9 = molecular target: T2, EV-9
# GV-10 = molecular target: T3, GV-10
# [2] = molecular target: T4, Galanin substrate (H. sapiens)
# HV-10 = molecular target: T5, HV-10
# Histatin-1a = molecular target: T6, Histatin-1a
# Histatin-1b = molecular target: T7, Histatin-1b
# Histatin-3a = molecular target: T8, Histatin-3a
# Histatin-3b = molecular target: T9, Histatin-3b
# [3] = molecular target: T10, Neuromedin U substrate (H. sapiens)
# RV-10 = molecular target: T11, RV-10
# [4] = molecular target: T12, Rat neuromedin U substrate
# SA-kB1-NHV = molecular target: T13, SA-kB1-NHV
# SFTI-DHV = molecular target: T14, SFTI-DHV
# SFTI-NHV = molecular target: T15, SFTI-NHV
# SV-10 = molecular target: T16, SV-10
# [5] = molecular target: T17, Salusin substrate (H. sapiens)
# Thanatin analog = molecular target: T18, Thanatin analog
# kB1-AHV = molecular target: T19, kB1-AHV
# kB1-DHV = molecular target: T20, kB1-DHV
# kB1-EHV = molecular target: T21, kB1-EHV
# kB1-N* = molecular target: T22, kB1-N*
# kB1-NH = molecular target: T23, kB1-NH
# kB1-NHV = molecular target: T24, kB1-NHV
# kB1-NHVIA = molecular target: T25, kB1-NHVIA
# kB1-NHVI = molecular target: T26, kB1-NHVI
# kB1-QHV = molecular target: T27, kB1-QHV
# [6] = molecular target: modified GFP ending with Asn-His-Val at the C-terminus and starting with Gly-Ile at the N-terminus
protein,measurement,setting,value
butelase 1 (active enzyme purified from pods of Clitoria ternatea) (protein) VEGTRWAVLVAGSKGYVNYRHQADVCHAYQILKKGGLKDENIIVFMYDDIAYNESNPHPGVIINHPYGSDVYKGVPKDYVGEDINPPNFYAVLLANKSALTGTGSGKVLDSGPNDHVFIYYTDHGGAGVLGMPSKPYIAASDLNDVLKKKHASGTYKSIVFYVESCESGSMFDGLLPEDHNIYVMGASDTGESSWVTYCPLQHPSPPPEYDVCVGDLFSVAWLEDCDVHNLQTETFQQQYEVVKNKTIVALIEDGTHVVQYGDVGLSKQTLFVYMGTDPANDNNTFTDKNSLGTPRKAVSQRDADLIHYWEKYRRAPEGSSRKAEAKKQLREVMAHRMHIDN,Km,[1],6.7 µM
same,cyclization yield within 5 min,[1],butelase 1 achieved >95% cyclization yields within 5 min for all peptides tested
same,kcat,[1],5.78 s⁻¹
same,kcat/Km,[1],859000 M^-1 S^-1
same,"Yield (%) of dimerization and cyclization, products Cyclo([..]), [..]",EV-9,20%
same,"Yield (%) of dimerization and cyclization, product Cyclo([..])2",GV-10,50%
same,Km,[2],34.2 µM
same,cyclization yield within 5 min,[2],butelase 1 achieved >95% cyclization yields within 5 min for all peptides tested
same,kcat,[2],3.54 s⁻¹
same,kcat/Km,[2],103000 M^-1 S^-1
same,"Yield (%) of dimerization and cyclization, product Cyclo([..])2",HV-10,50%
same,Yield (%) of cyclization,Histatin-1a,90%
same,Yield (%) of cyclization,Histatin-1b,90%
same,Yield (%) of cyclization,Histatin-3a,90%
same,Yield (%) of cyclization,Histatin-3b,90%
same,Km,MrIA conotoxin substrate,7.9 µM
same,Yield (%) of cyclization,MrIA conotoxin substrate,95%
same,kcat,MrIA conotoxin substrate,2.2 s⁻¹
same,kcat/Km,MrIA conotoxin substrate,278000 M⁻¹ s⁻¹
same,Km,[3],8.7 µM
same,cyclization yield within 5 min,[3],butelase 1 achieved >95% cyclization yields within 5 min for all peptides tested
same,kcat,[3],5.78 s⁻¹
same,kcat/Km,[3],664000 M^-1 S^-1
same,"Yield (%) of dimerization and cyclization, products Cyclo(RVTRPVN), Cyclo(RVTRPVN)2",RV-10,20%
same,Km,[4],20.2 µM
same,cyclization yield within 5 min,[4],butelase 1 achieved >95% cyclization yields within 5 min for all peptides tested
same,kcat,[4],26.6 s⁻¹
same,kcat/Km,[4],1.31e+06 M^-1 S^-1
same,Cyclization yield (%) at 0.2 h,SA-kB1-NHV,> 95%
same,Km,SA-kB1-NHV,31.5 µM
same,fold change of catalytic efficiency against kB1-NHV,SA-kB1-NHV,a 50-fold improvement in the catalytic efficiency of SA-kB1-NHV compared to kB1-NHV
same,kcat,SA-kB1-NHV,17.1 s⁻¹
same,kcat/Km,SA-kB1-NHV,542000 M⁻¹ s⁻¹
same,Cyclization yield (%) at 4 h,SFTI-DHV,< 10%
same,Cyclization yield (%) at 0.8 h,SFTI-NHV,> 95%
same,Km,SFTI-NHV,51 µM
same,catalytic efficiency (kcat/Km),SFTI-NHV,"catalytic efficiency of 11,700 M^-1 s^-1"
same,kcat,SFTI-NHV,0.6 s⁻¹
same,kcat/Km,SFTI-NHV,10700 M⁻¹ s⁻¹
same,"Yield (%) of dimerization and cyclization, product Cyclo([..])2",SV-10,50%
same,cyclization yield within 5 min,[5],butelase 1 achieved >95% cyclization yields within 5 min for all peptides tested
same,Yield (%) of cyclization,Thanatin analog,95%
same,Cyclization yield (%) at 4 h,kB1-AHV,< 1%
same,cyclization after 4 h (MS),kB1-AHV,"No cyclization of kB1-AHV, kB1-QHV or kB1-EHV was observed after incubating with butelase 1 for 4 h"
same,Cyclization yield (%) at 4 h,kB1-DHV,< 10%
same,cyclization rate against kB1-NHV,kB1-DHV,at about a hundred-fold slower than kB1-NHV
same,Cyclization yield (%) at 4 h,kB1-EHV,< 1%
same,cyclization after 4 h (MS),kB1-EHV,"No cyclization of kB1-AHV, kB1-QHV or kB1-EHV was observed after incubating with butelase 1 for 4 h"
same,Cyclization yield (%) at 4 h,kB1-N*,< 10%
same,Cyclization yield (%) at 4 h,kB1-NH,< 5%
same,Cyclization yield (%) at 0.8 h,kB1-NHV,> 95%
same,Km,kB1-NHV,213 µM
same,conversion into cyclic kB1 within 6 min (RP-HPLC),kB1-NHV,converted about 40% of kB1-NHV into cyclic kB1 within 6 min
same,kcat,kB1-NHV,2.28 s⁻¹
same,kcat/Km,kB1-NHV,10700 M⁻¹ s⁻¹
same,Cyclization yield (%) at 3 h,kB1-NHVIA,> 95%
same,Km,kB1-NHVIA,129 µM
same,kcat,kB1-NHVIA,0.38 s⁻¹
same,kcat/Km,kB1-NHVIA,2970 M⁻¹ s⁻¹
same,Cyclization yield (%) at 2 h,kB1-NHVI,> 95%
same,Km,kB1-NHVI,62 µM
same,kcat,kB1-NHVI,0.25 s⁻¹
same,kcat/Km,kB1-NHVI,4030 M⁻¹ s⁻¹
same,Cyclization yield (%) at 4 h,kB1-QHV,< 1%
same,cyclization after 4 h (MS),kB1-QHV,"No cyclization of kB1-AHV, kB1-QHV or kB1-EHV was observed after incubating with butelase 1 for 4 h"
same,"cyclization yield within 15 min (SDS page, ESI-MS)",[6],The cyclization reaction completed within 15 min with >90% yield
Jack bean legumain (Takara Bio) (protein) EVGTRWAVLVAGSNGYGNYRHQADVCHAYQLLIKGGVKEENIVVFMYDDIAYNAMNPRPGVIINHPQGPDVYAGVPKDYTGEDVTPENLYAVILGDKSKVKGGSGKVINSNPEDRIFIFYSDHGGPGVLGMPNAPFVYAMDFIDVLKKKHASGGYKEMVIYIEACESGSIFEGIMPKDLNIYVTTASNAQENSFGTYCPGMNPPPPEEYVTCLGDLYSVSWMEDSETHNLKRETVQQQYQSVRKRTSNSNSYRFGSHVMQYGDTNITAEKLYLYHGFDPATVNFPPHNGNLEAKMEVVNQRDAELLFMWQMYQRSNHQPEKKTHILEQITETVKHRNHLDGSVELIGVLLYGPGKSSSVLHSVRAPGLPLVDDWTCLKSMVRVFETHCGSLTQYGMKHMRAFGNVCNSGVSKASMEEACKAACGGYDAGLLYPSNTGYSA,hydrolysis or cyclization of kB1-NHV (MS),kB1-NHV,commercial jack bean legumain was unable to cyclize kB1-NHV and generated only the linear form of kB1

# Source: patent US20170044515
